{
  "source": "a protein production outcome set (Wang et al. 2014)",
  "data": [
    {"assay": "label from the status in PepcDB records", "values": [
      {"sequence": "MDRVMRDDLHIMPPPAPLAMQAQDFSAGFRDALAPPDSPQRDVAPWRVLAFSPAMAATLALVWLMGDWFSDSGISVLEAVLLALISFNFFWIAFAASTVLLGMLSLSRQPARARAGRAEPLKVALLMPVYNEVPWYVLGNARTMLEELKARGGQHQYAMFILSDTRDDAIAAQEQASVEALRTTLAPDLALYYRRRVENTDRKVGNIADWVAGWGGAWDAMLVLDADSLMTGRAIARLTDALARDPGAGLIQSFPQLIGAQSVFARMQQFANGVYGAAFAEGMARWCGQEGNYWGHNAIIRTAAFANCAGLPKLRSLSGREKLIMSHDFVEAGLLRRAGWSVRFLPRIRGSYEETPPTLIDHVLRDRRWCQGNLQHLNLLNARGFRSVSRFHMFHGAIGYLMSPIWFALLVMWALIGHGQDGSVLQYFSPDNPLFPQWPEMTEGRHVLIIVVMYAMLLLPKLLGVLALPLSGAHYSDFGGAGRFLLSFLSEVVLSILYAPILMVQQMIAVFRTFLGIQKGWSPQARDGGTYGLGTLVKCHMLETLSGLALGTGIALGLVSVWLAPIALSLALAVPLSALSGVSAGTARRLIGMREEFREPAITRSARAYRNELKTLLERGSRIHPAE", "protein production": "failed"},
      {"sequence": "MDRWNMHKPMLCDSLPTASRTAAAILNLAQREDVTAEALAQLIQTDPALTGRILRFANAPAQGTRRPVASVIDAIDLVGLPAVRQFALSLSLIDAHREGRCEAFDYAAYWQKSLARAVALQSITAQASTVAPKEAFTLGLLADVGRLALATAWPEEYSECLRKADGEALIALERERFATDHDELTRMLLTDWGFPQVFIDALQLSQQDEIRDEGRTGRFARQLALAQHIADHRLAEEPRRAALSPLLRAEARRCGLGDEDLARLLADPPADWLDWTRTIGLEHHHHHH", "protein production": "not failed"},
      {"sequence": "MDSGCWLFGGEFEDSVFEERPERRSGPPASYCAKLCEPQWFYEETESSDDVEVLTLKKFKGDLAYRRQEYQKALQEYSSISEKLSSTNFAMKRDVQEGQARCLAHLGRHMEALEIAANLENKATNTDHLTTVLYLQLAICSSLQNLEKTIFCLQKLISLHPFNPWNWGKLAEAYLNLGPALSAALASSQKQHSFTSSDKTIKSFFPHSGKDCLLCFPETLPESSLFSVEANSSNSQKNEKALTNIQNCMAEKRETVLIETQLKACASFIRTRLLLQFTQPQQTSFALERNLRTQQEIEDKMKGFSFKEDTLLLIAEVMGEDIPEKIKDEVHPEVKCVGSVALTALVTVSSEEFEDKWFRKIKDHFCPFENQFHTEIQILA", "protein production": "failed"},
      {"sequence": "MDSGQIILNLVIIVITFFVAAFFVACEFALVQTRPSALEEEQKKRDKPSKRIATSLHMVRNLNEYLSTTQVGVSLAGIILGWIGEQTTEHFVLDFLSLFNLSVSTAVLRGISIVIGVFLLTYLEVVLTEIVPKNIAIDMPLKVMAVITTPLRWFHVMFYPFVWLLNVSSAGVVKMLGIPVANEDNDVYSQAEILNLSRNAVTGGELERNDYLYMERAFEFNDKIAKDIMIDRTQLVVIDINDTVKQAIRVYLQKRFSRLPVVANNDKDKILGYVYNYDLIRQGEVDDDIRVNKLLRNIITIPETTPIQAILQKMIDKQTPIVVVVDEYGGTSGIVTDKDIYEELFGTVNDEIDNVSNEYIEKQADGTYRISGKMTIYDFERYFKTDLQEFEDSDVVTLTGYILDNFPKIQAGDTIQIGNFNFKALDFENAYINWFEVSAQRDSTPDDHNDDQTQD", "protein production": "failed"},
      {"sequence": "MDSMDHRIERLEYYIQLLVKTVDMDRYPFYALLIDKGLSKEEGEAVMRICDELSEELATQKAQGFVTFDKLLALFAGQLNEKLDVHETIFALYEQGLYQELMEVFIDIMKHFD", "protein production": "not failed"},
      {"sequence": "MDSSNYFYGGNNICIINTKWGKHSGIGGYAEIIDTLVGNFTNISSWAKIGIRDHIHTNFLICDFVYKDNDHIMPPGISSFEDYWVKIGNDVWVGTNVTILRGVEVGDGAVIAAGSVVTKSIPPYAIVGGNPAKFIKWRFPFEVREKLLEIKLEHHHHHH", "protein production": "failed"},
      {"sequence": "MDTFNYQNFYNQEYYLNMVPGIPYDREAHGGHWLRFFNTVADRLINYVSPTSVLDVGCAKGFLLEAFYNRGILVHGFDYSEYAISCVREDLKPFAFVASAANSNAFLEKQDSYDLITCIEVVEHMPRDEAWLAIKNMCQSAKSIFFSSTSDDFAEPTHLTVLPRIYWLETFLSFGFVPDYKFDIHDLIPHGILLRKIDDNLTAFKMLIEVNETNLEVIKQQKIDIEKLNSEKVNLENKLQQTQTELERSHSQLQQTQTELERSHSQLQQTQTELERSHSQLQQTQTELERSHSQLQQTQTELERSHSQLHQTQTELERSQSQLQQTQTELERSQSQLQQIQMALTLPQSQLYQMQTELEHWKNLVDWMEGSRFWKLRALCLSLKKKIINFPIIKLDFGSLPVFRKNNYPIFVKRTGKLIKNQIMSFRTQNDFADEILAGVLQSFAESPEYSQWIKDYEAKNDELKEQRINAASFPYQPVLSIILPVYKLPLTVLQETINSVIQQTYSNWELCIAFADIDNYQTIDYLKTLSLQEKRIKLKVMAENKGISGNSNVSLNMASGEFVALLDHDDLLAPFAFYEVISELNKQPDLDFIYSDKDCISANSMVRSRLLLKPEWSPEILYSANYLTHLCIARRTLLEKIGGFRPETDGAQDWDLFLRITENTSRIARINSVLYHWRIIQGSTSLGIDSKPYALEGQLRSIQDHLTRTKLPATVSPHPESGFRLEWQASSAEVSIYIDGDVSWDSLSACIHAVSEFADPKLHKATIVLAEHTYTSKATERENLITAVNLPIDWLPIKEGDSKLATLANTIKQDKTDVVVFVSGLVKKFTEGWIQELSGWVLNHPDIGFVSSLVLTDNNLVVEAGLVVDQYNNGSPLMRGNFLYSWDIFGGALWYRNCSASSPWSIAFSYKNYLEGGGLPSNSPSLSHSMIKLCQAIRVNNKRGLVNPHARAFLQDLPKNDIPEFDDSLGNDPYFHPAFSSVVPLKLRVKNGKKN", "protein production": "failed"},
      {"sequence": "MDTIRSIFIIWKDDRMSFLNNSIIYHIAIILYACSISLYFIDYFQSNRKANRFAFWLLSIVWVLHSIFMLLRATDSETNPLLTLLSGIYFYVWLLITMSLVINRFMRIDFLVFFTNVVAFGVSAFSIFTPLGKMSPVLAEQLVSELVYVHVGMAIISYATFTVSFIFSIMYLLQYRLLKKKKWNARLRRLGNLPKLESMSYGLNLFSVPFFLLAILLGCIWGYTKLDNFHWYDTKVIGSFVVLFVYCAGLYLRAADVLQGKKIVQWNIGAFLVMLINIFLLSSLSNFHFWYL", "protein production": "failed"},
      {"sequence": "MDTKHFLPLDFSTQVNSSLTSPTGRGSMAAPSLHPSLGPGIGSPGQLHSPISTLSSPINGMGPPFSVISSPMGPHSMSVPTTPTLGFSTGSPQLSSPMNPVSSSEDIKPPLGLNGVLKVPAHPSGNMASFTKHICAICGDRSSGKHYGVYSCEGCKGFFKRTVRKDLTYTCRDNKDCLIDKRQRNRCQYCRYQKCLAMGMKREAVQEERQRGKDRNENEVESTSSANEDMPVERILEAELAVEPKTETYVEANMGLNPSSPNDPVTNICQAADKQLFTLVEWAKRIPHFSELPLDDQVILLRAGWNELLIASFSHRSIAVKDGILLATGLHVHRNSAHSAGVGAIFDRVLTELVSKMRDMQMDKTELGCLRAIVLFNPDSKGLSNPAEVEALREKVYASLEAYCKHKYPEQPGRFAKLLLRLPALRSIGLKCLEHLFFFKLIGDTPIDTFLMEMLEAPHQMT", "protein production": "failed"},
      {"sequence": "MDTQTVAAYDTLAETFAREWREQPAPDDLYALLRRMFKAGGDTVDIGCGAGREVAWLNANGYPAVGYDASAGLLEAARTQYPGLSFRRAMLPELVGIAEGAFDNVVCETVIMHLPPAQIGAAVRRLLALLRPGGTLYLSWRVTPEADQRDGRGRLYTAFDAAGVREALAGAQVLFDEVAVSQSSGLEHHHHHH", "protein production": "not failed"},
      {"sequence": "MDTTAVLLKGPKDLDVDTLQLHVPGDGDLVVEIEHSGISTGTEKLFWSGEMPPFPGMGYPLVPGYEAVGEVVEADRATGFKVGERVFVPGANCYDGAFGLFGGAASRVVTASDRVTRIDAGHGASGALLALAATARHSMAGLNKSVPDLIVGHGVLGRLLARLTIAAGAPAPMVWEIDESRRKGAQGYEVIAPEDDPRRDYTSVYDASGSVEVLNDLVGRLAKGGEIVLAGFYTTAISFAFPPAFMKEARFRVAAEWTHDDLAATRALVEGGSLSLENLITHQASHLNARAAYAQAFTDPDCLKMILNWKDVA", "protein production": "failed"},
      {"sequence": "MDTVPPRTYNNSNFPEGLPAVSLSDEERARQQRWTPLRVTIWILISAIAGLGWWMLAVRRGETVNGIWFVFAAIGSYFIGYRFYAKYIQDKLVHPDDSRATPAEYDYNGRDFVPTDRRILYGHHFAAIAGAGPLVGPVLSAQMGYLPSTIWIIVGVILAGAVQDYLVLVISMRRGGRSLGQMAREELGRFGGIAALIATLTIMLIIVAILAMVVVNSLAASSWGVWSVGLTIPIALLMGFYLRYLRPGKVFEVSIIGIVLLVLAIASGAWIENTAVASALHLSKPFLAWAIIIYGFIAAVLPVWMLLAPRDYLSTFMKVGVIAMLAISIVIVRPVINVPAMTVYATNGAGPVFSGKLFPFLFVTIACGALSGFHATISSGTTPKLIEKESQARLIGYGGMLMESFVAIMALVAALSVDRGIYFAMNSPAGATGNTVKSAIAYVNSLGLSGVHANANTLTTTAKLVGETSIVSRTGGAPTLAVGLATIMHKIFGGEAMMSFWYHFAIMFEALFILTSVDAGTRVARFMLSDALGNFWPRLKDHSWKVGSWLTTAIMVAGWGSILLMGVTDPLGGINTLFPLFGIANQLLAAVALSICLVIFARAGHTWRLLIIFVPMLFTAIITVYGSWLKIFSPDPKLGYWANHMTYKRAIADGKTSLGQAKNIDEMHTVVGNTAIQGTMSIIFVVCALIVMIVACIRTVQALRGRNIIDTEDPAKPSKIFAPSGLMPTKAERDLQVEWDAFYEEHPELDLESVHKDKEHA", "protein production": "failed"},
      {"sequence": "MDTVTKLSIIIPAWNEETGIARTLETLLALTAGRGDTEIIVSVSGNDRTKAIARTFPVVVCHSEKGRAVQMNAGAKLATGSILYFLHADTTPPPSFCDDIFSAIERGARAGCFRMTFDDPDWLMQLYGWFTQFPLPVCRGGDQSLFITKELFGQIGGFDERLQIMEDIEIIDRLQRHAGFHILDSTVTTSARKYHTNGTVRLQAIFGTIHLMYALGFSQKNIVAFYRDSIRLEHHHHHH", "protein production": "not failed"},
      {"sequence": "MDTVTLARAFFGSSLAFHIIFATLGVGLSLMIFISEILYHWKKDSDYAIMAKRWTKAFAILLGVAIPTGTIVGVQISLLWPGFAKIVGQVISVPFQIEIFAFFLEALFMSIYVYAADKLPPFMRLISLFFVMLGATASAVLITSANTWMNTPAGFSMNPDGSVFNVDPWKAFFNPSFGTSAFHVVITAYATGAAVIASIAGFKLLKKNLSTREIAYHKKGLLLGLVVTFITGATMWLSGHESAIALHKHSPEKLASAEALFETTSHAPLSIGGVVDPNTLELNYALEIPNMLSLLVGLDPSTVVKGLKEFPQETWPPFYTHTLFNLMVGTAAFTFAVAAIALLYWYFVYRKKGTELPKWLLWGAAACGPIMMLGIEFGWIFSCSGRQPWTIYGMQRTVDASTRADFVGPLFVLFIILYIGLAILTVIVLRTFFRRHPLKNDLQHQGGDSHA", "protein production": "failed"},
      {"sequence": "MDVAIELTTRVGVLLFFIAICHVIAQRVRLPDPIILTAAGVTIGFGYVALEHVAPAFAANTIAPFLSPAMPPEAYLWIFLPPILFQAAIEVDSSGFVADLGPILLLAIGAVVAATLSVGAVAYLTSGQGLIACLLLGAIVSTTDPSTVIGLFQSSGAPARLIRLVEGESLFNDAAAIAITTLLTGVISVMPTHDAAHFPLAQFLLSLLGGCAVGWLVGVVLVFVSGAMRSPPFAEYSLSLALPNLIYPFAERVLHVSGVAAVVCAGLVVGRIMLSRRPASHVKLFRQLWLYQATIASASVLLLATAHVPSLLDDLRMIDVVILLLVLVAAVASRFGILSVSMPMMSRIGICKPLPVSHQLLIAWGGVRGPVTLTLAICLARNQDLAPDTRHFAAAMAAGFVLLNLFFNGLTLKLFARWLGVAAPGGRRPAAIEVD", "protein production": "failed"},
      {"sequence": "MDVEKIPGSVCLVAPHANANPTWPADLAWVKQVLFRMGIKVVATLTHRTPIAEIENIASAETSLLLSHDAGQKAADYLSATFGIEQVCKGIPLEHHHHHH", "protein production": "failed"}
    ]}
  ]
}
